Test results reported in EP3636665A1 (dated 2020).

Assays:
[1] = biological target: T1, MAGE-A1 and a second family member (printed 'MRGE-A1/R4') peptide on HLA-DPB1*04:01 (human); test: cytokine release
T1 peptide: QDLVQEKYLEY

[2] = biological target: T2, MAGE-A3 peptide on HLA-DPB1*04:01 (human); test: cytokine release
T2 peptide: KKLLTQHFVQENY

binding result [1]: no recognition
binding result [2]: no recognition
B1: 6F9 TCR (TCR, V domains shown)
Valpha: AQTVTQSQPEMSVQEAETVTLSCTYDTSESDYYLFWYKQPPSRQMILVIRQEAYKQQNATENRFSVNFQKAAKSFSLKISDSQLGDAAMYFCALRSSGTYKYIFGTGTRLKVLA
Vbeta: GAGVSQSPSNKVTEKGKDVELRCDPISGHTALYWYRQSLGQGLEFLIYFQGNSAPDKSGLPSDRFSAERTGGSVSTLTIQRTQQEDSAVYLCASIRTGPFFSGNTIYFGEGSWLTVV
